Results: patent publication US8715970B2, “Enzymatically catalyzed method of preparing mono-acylated polyols” (BASF SE, priority 2009, dated 2014)
Positions count from the first letter of the chain named. In names and notes the source's numbering stands.

Experiments:
Assay type in all cases: biochemical
[1] = Enzyme-catalyzed acylation of 1,2-ethanediol with ethyl acetate as acyl donor (Example 2); settings: for Maximum monoester yield: 1,2-ethanediol 20 mM in ethyl acetate (acyl donor and solvent), 29° C.; for Conversion at 3:1 (monoester:diester) / Conversion at 9:1 (monoester:diester): 1,2-ethanediol 20 mM in ethyl acetate; for Conversion at 3:1 (monoester:diester): product distribution 75%; for Conversion at 9:1 (monoester:diester): product distribution 90%
Method: (§1) Each diol was dissolved to a concentration of 20 mM together with 5 mM of 3-hexanone in ethyl acetate, ≧99% from Fluka, which was used as acyl donor and solvent. Reactions were started by adding 4 ml reaction solution to 20 mg enzyme carrier beads loaded with either wild-type or T40A mutated CALB. Reactions were run at 29° C. on a HLC rotating thermo block. Aliquots of 50 μl were taken, filtered through wool in a Pasteur pipette and diluted with 50 μl ethyl acetate prior to analysis. The 3-hexanon used as internal standard were present in the reaction solution throughout both reaction and analysis.
(§2) 5 mM 3-hexanone was used as internal standard in the reaction mixtures together with 20 mM diol. Aliquots were taken during the reaction by taking 50 μl of reaction sample. The samples were filtered though wool together with 50 μl ethyl acetate, thereby any remaining enzyme were removed and the reaction samples were diluted by a factor of 2 prior to analysis.
(§3) The reactions catalyzed by the T40A-mutant were rerun with 100 mg enzyme carrier beads for determination of maximum monoester yield. The reactions with 2-methyl-1,3-propanediol and 2-phenyl-1,3-propanediol were rerun at 100 mM concentration of diol and 50 mg enzyme carrier beads, both with CALB wild type and CALB T40A-mutant. This was done in order to determine the enantiomeric excess.
(§4) All reactions were analyzed on GC, Hewlett Packard 5890 series II. Two different 25 m×0.32 mm WCOT fused silica columns were used, depending on the different substrates and products that were analyzed. A polar GC-column with CP Chirasil-Dex CB coating was used for the reactions with 1,2-ethanediol and 1,3-propanediol. A non-polar GC-column with CP-SIL 5CB coating was used for the reactions with 1,4-butanediol, 2-methyl-1,3-propanediol and 2-phenyl-1,3-propanediol.
(§5) The response factor for each diol was determined in relationship to 3-hexanone. When all diol and mono-ester had converted to di-ester, the response factor for the di-ester could be determined in relationship to […]. The concentration of mono-ester in each reaction was determined by subtracting the concentration of di-ester from the starting concentration of diol.
(§6) A great difference in concentration between acyl donor and diol was accomplished in the reactions by using ethyl acetate as solvent and acyldonor and a diol concentration of 20 mM. Therefore the reactions was considered to irreversible, following the reaction scheme:
(§7) [formula] A, B and C corresponds to diol, monoester and diester, respectively. k1 and k2 respectively corresponds to the reaction rates of the acylation of diol and monoester.
(§8) The reaction rates are dependent on enzyme concentrations and the kcat/KM towards the substrates. By fitting the concentrations measured over time into the equations and using the enzyme concentration determined by active site titration, the following results were obtained.

[2] = Enzyme-catalyzed acylation of 2-methyl-1,3-propanediol with ethyl acetate as acyl donor (Example 2); settings: for Conversion at 3:1 (monoester:diester) / Maximum monoester yield: 2-Me-1,3-propanediol 20 mM in ethyl acetate; for Maximum monoester yield: 29° C.
Method: as §1, §2, §3, §4, §5, §6, §7, §8

[3] = Enzyme selectivities and specificities towards 1,2-ethanediol with vinyl acetate or vinyl butyrate in MTBE (Example 7)
Method: (§9) Reactions using the CALB mutants as described in Example 5 and Example 6 were run with two different straight chain primary diols: 1,2-ethanediol, ≧99.5% from MERCK and 1,4-butanediol, ≧99% from Aldrich. Two different acyl donors were used: vinyl acetate, ≧99% from Fluka and vinyl butyrate, >99% from Fluka. Decane, ≧99% from Fluka, was used as internal standard. MTBE, 99.5% from Lab-Scan was used as solvent.
(§10) Each diol was dissolved to a concentration of 100 mM together with 1 M of the acyl donor and 20 mM decane in MTBE. Reactions were started by adding 3 ml reaction solution to a specific amount of enzyme carrier beads. Different amounts of enzyme carrier beads were used for the different reactions. For reactions with 1,2-ethanediol and vinyl acetate, 19.7 mg wild type, 22.5 mg A282L, 50.5 mg A281V, and 45.5 A281E CALB were used. […]
(§11) All reactions were analyzed on GC, Hewlett Packard 5890 series II. Two different 25 m×0.32 mm WCOT fused silica columns were used, depending on the different substrates and products that were analyzed. […] The response factor for each diol was determined in relationship to decane. When all diol and mono-ester had converted to di-ester, the response factor for the di-ester could be determined in relationship to decane. The concentration of mono-ester in each reaction was determined by subtracting the concentration of di-ester from the starting concentration of diol.

[4] = Enzyme selectivities and specificities towards 1,4-butanediol with vinyl acetate or vinyl butyrate in MTBE (Example 7)
Method: as §9, §10, §11

[5] = 2-methyl-1,3-propanediol, ethyl acetate

B1: WT: non-mutated Candida antarctica lipase B (CALB), SEQ ID NO: 2, immobilized on carrier beads (protein, listed as Candida antarctica)
chain: LPSGSDPAFSQPKSVLDAGLTCQGASPSSVSKPILLVPGTGTTGPQSFDSNWIPLSAQLGYTPCWISPPPFMLNDTQVNTEYMVNAITTLYAGSGNNKLPVLTWSQGGLVAQWGLTFFPSIRSKVDRLMAFAPDYKGTVLAGPLDALAVSAPSVWQQTTGSALTTALRNAGGLTQIVPTTNLYSATDEIVQPQVSNSPLDSSYLFNGKNVQAQAVCGPLFVIDHAGSLTSQFSYVVGRSALRSTTGQARSADYGITDCNPLPANDLTPEQKVAAAALLAPAAAAIVAGPKQNCEPDLMPYARPFAVGKRTCSGIVTP
modifications: immobilized on carrier beads
In the case of B1, the Maximum monoester yield [1] is reported as 43%, the Maximum monoester yield ([1]; listed as wild type) is reported as 43% and the “Conversion at 3:1 (monoester:diester)” value [1] is reported as 17%. For the same molecule, the “Conversion at 3:1 (monoester:diester)” value ([1]; listed as wild type) was 17%, the “Conversion at 9:1 (monoester:diester)” value [1] was less than 9% and the “Conversion at 9:1 (monoester:diester)” value ([1]; listed as wild type) was 9%. For the same molecule, the Selectivity diol/monoester ([1]; 1,2-ethanediol, ethyl acetate) was 1.9, the “Conversion at 3:1 (monoester:diester)” value [2] was 30% and the Maximum monoester yield [2] was 42%. It also gave a Selectivity diol/monoester [2, 5] of 1.5, an Initial reaction rates ([3]; vinyl acetate) of 0.21 mol/g/min and an Initial reaction rates ([3]; vinyl butyrate) of 0.36 mol/g/min. For the same molecule, the Initial reaction rates ([4]; vinyl acetate) was 0.12 mol/g/min and the Initial reaction rates ([4]; vinyl butyrate) was 0.24 mol/g/min.

B2: T40A: CALB mutant with single mutation Thr40Ala (SEQ ID NO: 4) (protein)
chain: B1 chain with T40X
modifications: T40 Mutant
In the case of B2, the Maximum monoester yield [1] is reported as 77%, the “Conversion at 3:1 (monoester:diester)” value [1] is reported as 99% and the “Conversion at 3:1 (monoester:diester)” value ([1]; listed as T40A CALB) is reported as 99%. The “Conversion at 9:1 (monoester:diester)” value [1] was 78%, the “Conversion at 9:1 (monoester:diester)” value ([1]; listed as T40A CALB) was 78% and the Selectivity diol/monoester ([1]; 1,2-ethanediol, ethyl acetate) was 7.7. The “Selectivity ratio diol/monoester T40A/WT” value ([1]; 1,2-ethanediol, ethyl acetate) was 4.0, the Selectivity diol/monoester ([1]; 1,2-ethanediol, ethyl acetate, listed as T40A CALB) was 7.6 and the “Conversion at 3:1 (monoester:diester)” value [2] was 55%. For the same molecule, the Maximum monoester yield [2] was 55%, the Selectivity diol/monoester [2, 5] was 2.6 and the “Selectivity ratio diol/monoester T40A/WT” value [2, 5] was 1.7. The Selectivity diol/monoester ([2]; 2-methyl-1,3-propanediol, ethyl acetate, listed as T40A CALB) was 2.5.
